This passage reports binding result and Kd results from patent US20230382991A1 (COMMISSARIAT A L ENERGIE ATOMIQUE ET AUX ENERGIES …, published 2023).

The target in experiment [1] is T1, recombinant human LILRB4-Fc fusion protein (human, UniProt Q8NHJ6 22-259).
T1 construct: not shown: Fc part of the fusion bought from R&D Systems
In words: EIA on hLILR-Fc captured by goat anti-human Ig on the plate; AChE-labelled goat anti-mouse antibody; absorbance (axis printed 'DO 141nm'); no blank curve on the sheet.

Experiment [2] addresses T2, recombinant human LILRA2-Fc fusion protein (human, UniProt Q8N149 24-449).
T2 construct: not shown: Fc part of the fusion bought from R&D Systems
Described as above.

Experiment [3] has as its target T3, recombinant human LILRB5-Fc fusion protein (human, UniProt O75023 24-458).
T3 construct: not shown: Fc part of the fusion bought from R&D Systems
Described as above.

For experiment [4], the target named is T4, recombinant human LILRB3-Fc fusion protein (human, UniProt O75022 24-443).
T4 construct: not shown: Fc part of the fusion bought from R&D Systems
T4 sequence (O75022 24-443): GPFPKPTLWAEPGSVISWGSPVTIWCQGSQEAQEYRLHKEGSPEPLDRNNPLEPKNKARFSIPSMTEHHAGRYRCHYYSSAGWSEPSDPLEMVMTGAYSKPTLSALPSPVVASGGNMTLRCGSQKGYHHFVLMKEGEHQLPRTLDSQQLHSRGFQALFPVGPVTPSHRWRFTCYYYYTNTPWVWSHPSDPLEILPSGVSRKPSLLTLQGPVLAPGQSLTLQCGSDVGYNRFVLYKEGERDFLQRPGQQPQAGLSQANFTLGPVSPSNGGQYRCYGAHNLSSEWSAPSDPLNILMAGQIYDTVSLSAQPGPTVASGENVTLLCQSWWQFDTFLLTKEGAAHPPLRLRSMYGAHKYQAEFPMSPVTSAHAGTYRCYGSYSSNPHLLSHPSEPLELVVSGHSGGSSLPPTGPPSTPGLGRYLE
The description is as above.

Experiment [5] deals with T5, recombinant human LILRA4-Fc fusion protein (human, UniProt P59901 24-446).
T5 construct: not shown: Fc part of the fusion bought from R&D Systems
T5 sequence (P59901 24-446): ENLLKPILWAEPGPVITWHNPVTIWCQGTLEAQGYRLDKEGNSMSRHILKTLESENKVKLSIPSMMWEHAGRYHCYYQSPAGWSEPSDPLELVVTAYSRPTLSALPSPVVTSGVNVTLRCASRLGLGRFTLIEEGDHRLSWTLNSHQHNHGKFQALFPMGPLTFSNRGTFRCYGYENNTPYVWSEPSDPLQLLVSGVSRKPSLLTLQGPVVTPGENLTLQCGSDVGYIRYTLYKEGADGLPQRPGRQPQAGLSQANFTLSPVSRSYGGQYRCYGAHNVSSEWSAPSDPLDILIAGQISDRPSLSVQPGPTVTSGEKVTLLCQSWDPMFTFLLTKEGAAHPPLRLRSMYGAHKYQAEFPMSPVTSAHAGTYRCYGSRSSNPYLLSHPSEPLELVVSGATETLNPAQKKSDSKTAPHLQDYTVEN
Described as above.

Experiment [6] addresses T6, recombinant human LILRA5-Fc fusion protein (human, UniProt A6NI73 42-268).
T6 construct: not shown: Fc part of the fusion bought from R&D Systems
Described as above.

The target in experiment [7] is T7, cynomolgus macaque LILRB1.2-Fc fusion protein (cynomolgus macaque; human).
T7 construct: extracellular domain; Produced in HEK293T cells; also called mLILRB1.2; mLILRB1.2-Fc
In words: biolayer interferometry (ForteBio), mAb on anti-mouse Fc sensor, LILR-Fc in solution, 1:1 global fit.

Experiment [8] addresses T8, cynomolgus macaque LILRB2.2-Fc fusion protein (cynomolgus macaque; human).
T8 construct: extracellular domain; Produced in HEK293T cells; also called mLILRB2.2; mLILRB2.2-Fc
The experiment is described as above.

The target of experiment [9] is T9, recombinant human LILRB2-Fc fusion protein (human, UniProt Q8N423 22-457).
T9 construct: hLILR-Fc purchased from R&D Systems; also called hLILRB2-Fc; hLILRB2; not shown: Fc part of the fusion bought from R&D Systems; detected with anti-human IgG
T9 sequence (Q8N423 22-457): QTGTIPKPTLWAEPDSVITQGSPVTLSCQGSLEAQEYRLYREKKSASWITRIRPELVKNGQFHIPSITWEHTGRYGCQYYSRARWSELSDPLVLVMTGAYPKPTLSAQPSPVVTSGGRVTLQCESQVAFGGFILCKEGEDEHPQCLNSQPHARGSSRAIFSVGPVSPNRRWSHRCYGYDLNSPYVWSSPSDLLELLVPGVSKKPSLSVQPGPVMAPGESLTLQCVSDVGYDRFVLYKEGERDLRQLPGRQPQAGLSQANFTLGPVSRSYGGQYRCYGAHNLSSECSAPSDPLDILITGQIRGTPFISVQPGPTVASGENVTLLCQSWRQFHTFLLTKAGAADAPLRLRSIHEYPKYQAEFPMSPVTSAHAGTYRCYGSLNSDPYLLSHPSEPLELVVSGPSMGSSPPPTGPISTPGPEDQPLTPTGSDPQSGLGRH
The description is as above.

The target in experiment [10] is T10, recombinant human LILRA3-Fc fusion protein (human, UniProt Q8N6C8 24-439).
T10 construct: hLILR-Fc purchased from R&D Systems; also called hLILRA3; hLILRA3-Fc; not shown: Fc part of the fusion bought from R&D Systems
T10 sequence (Q8N6C8 24-439): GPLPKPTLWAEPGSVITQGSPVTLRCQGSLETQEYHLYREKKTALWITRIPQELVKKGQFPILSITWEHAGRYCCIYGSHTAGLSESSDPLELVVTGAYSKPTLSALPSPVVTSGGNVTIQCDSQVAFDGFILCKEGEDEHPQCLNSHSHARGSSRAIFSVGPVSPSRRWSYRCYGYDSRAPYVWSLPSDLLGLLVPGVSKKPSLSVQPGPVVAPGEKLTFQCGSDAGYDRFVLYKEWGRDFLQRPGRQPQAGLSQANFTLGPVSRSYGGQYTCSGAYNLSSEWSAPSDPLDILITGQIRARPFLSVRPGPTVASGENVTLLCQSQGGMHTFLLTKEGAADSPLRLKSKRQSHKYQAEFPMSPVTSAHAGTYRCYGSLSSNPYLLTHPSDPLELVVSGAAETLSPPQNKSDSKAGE
Described as above.

For experiment [11], the target named is T11, recombinant human LILRB1-Fc fusion protein (human, UniProt Q8NHL6 24-458).
T11 construct: hLILR-Fc purchased from R&D Systems; also called hLILRB1-Fc; hLILRB1; not shown: Fc part of the fusion bought from R&D Systems; detected with anti-human IgG
T11 sequence (Q8NHL6 24-458): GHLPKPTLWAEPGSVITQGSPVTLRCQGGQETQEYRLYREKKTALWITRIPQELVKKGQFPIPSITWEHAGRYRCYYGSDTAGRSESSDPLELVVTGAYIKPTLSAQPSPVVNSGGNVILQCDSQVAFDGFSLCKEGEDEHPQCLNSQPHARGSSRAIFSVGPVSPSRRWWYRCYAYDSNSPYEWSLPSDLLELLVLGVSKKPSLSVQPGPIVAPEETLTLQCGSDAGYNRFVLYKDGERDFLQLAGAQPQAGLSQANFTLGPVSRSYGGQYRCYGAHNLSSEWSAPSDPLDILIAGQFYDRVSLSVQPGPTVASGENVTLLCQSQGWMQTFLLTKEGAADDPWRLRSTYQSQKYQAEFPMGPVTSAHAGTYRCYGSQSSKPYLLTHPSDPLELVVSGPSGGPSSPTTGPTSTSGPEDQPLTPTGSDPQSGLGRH
The description is as above.

The target in experiment [12] is T12, recombinant human LILRA1-Fc fusion protein (human, UniProt O75019 17-461).
T12 construct: hLILR-Fc purchased from R&D Systems; also called hLILRA1; hLILRA1-Fc; not shown: Fc part of the fusion bought from R&D Systems; captured by anti-human immunoglobulin
T12 sequence (O75019 17-461): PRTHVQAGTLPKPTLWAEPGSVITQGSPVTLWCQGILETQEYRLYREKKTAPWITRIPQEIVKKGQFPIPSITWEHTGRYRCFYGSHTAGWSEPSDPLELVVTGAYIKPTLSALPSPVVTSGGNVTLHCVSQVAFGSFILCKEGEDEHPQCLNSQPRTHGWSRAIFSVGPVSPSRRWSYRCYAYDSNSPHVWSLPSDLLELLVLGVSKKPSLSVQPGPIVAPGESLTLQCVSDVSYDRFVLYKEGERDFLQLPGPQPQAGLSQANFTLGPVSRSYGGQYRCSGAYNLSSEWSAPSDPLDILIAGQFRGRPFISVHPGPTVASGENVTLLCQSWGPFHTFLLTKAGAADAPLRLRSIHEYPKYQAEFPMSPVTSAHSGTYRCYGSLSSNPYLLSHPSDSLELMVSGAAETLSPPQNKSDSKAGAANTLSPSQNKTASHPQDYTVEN
The experiment is described as above.

Experiment [13] addresses T13, cynomolgus macaque LILRB1.1-Fc fusion protein (cynomolgus macaque; human).
T13 construct: extracellular domain; Produced in HEK293T cells; also called mLILRB1.1; mLILRB1.1-Fc
The description is as above.

Experiment [14] deals with T14, cynomolgus macaque LILRB2.1-Fc fusion protein (cynomolgus macaque; human).
T14 construct: extracellular domain; Produced in HEK293T cells; also called mLILRB2.1; mLILRB2.1-Fc
Described as above.

Experiment [15] addresses T15, human LILRB1 expressed on stably transduced CHO cells (human, UniProt Q8NHL6 24-650).
T15 construct: whole, on cells; also called hLILRB1; CHO hLILRB1 cell line
The experiment in a line: flow cytometry, same method as FIG. 1B (CHO cells expressing human LILRB1).

T6 sequence (A6NI73 42-268): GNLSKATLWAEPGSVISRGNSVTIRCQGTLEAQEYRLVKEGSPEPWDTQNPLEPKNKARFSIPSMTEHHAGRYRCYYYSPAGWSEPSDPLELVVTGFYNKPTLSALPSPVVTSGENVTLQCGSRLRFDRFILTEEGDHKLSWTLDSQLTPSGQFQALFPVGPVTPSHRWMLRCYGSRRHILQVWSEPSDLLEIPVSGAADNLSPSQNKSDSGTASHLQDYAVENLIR
T2 sequence (Q8N149 24-449): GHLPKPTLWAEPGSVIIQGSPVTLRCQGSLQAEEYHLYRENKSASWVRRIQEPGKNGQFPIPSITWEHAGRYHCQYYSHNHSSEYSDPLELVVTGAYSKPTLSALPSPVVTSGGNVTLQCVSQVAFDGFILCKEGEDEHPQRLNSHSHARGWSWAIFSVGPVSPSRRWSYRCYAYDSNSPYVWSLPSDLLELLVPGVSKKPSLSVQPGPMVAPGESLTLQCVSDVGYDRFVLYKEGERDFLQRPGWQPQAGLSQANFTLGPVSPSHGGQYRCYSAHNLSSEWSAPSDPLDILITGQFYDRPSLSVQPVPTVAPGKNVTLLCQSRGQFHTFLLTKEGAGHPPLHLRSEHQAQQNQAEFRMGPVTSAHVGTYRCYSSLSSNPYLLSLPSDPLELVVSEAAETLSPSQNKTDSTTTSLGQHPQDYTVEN
T3 sequence (O75023 24-458): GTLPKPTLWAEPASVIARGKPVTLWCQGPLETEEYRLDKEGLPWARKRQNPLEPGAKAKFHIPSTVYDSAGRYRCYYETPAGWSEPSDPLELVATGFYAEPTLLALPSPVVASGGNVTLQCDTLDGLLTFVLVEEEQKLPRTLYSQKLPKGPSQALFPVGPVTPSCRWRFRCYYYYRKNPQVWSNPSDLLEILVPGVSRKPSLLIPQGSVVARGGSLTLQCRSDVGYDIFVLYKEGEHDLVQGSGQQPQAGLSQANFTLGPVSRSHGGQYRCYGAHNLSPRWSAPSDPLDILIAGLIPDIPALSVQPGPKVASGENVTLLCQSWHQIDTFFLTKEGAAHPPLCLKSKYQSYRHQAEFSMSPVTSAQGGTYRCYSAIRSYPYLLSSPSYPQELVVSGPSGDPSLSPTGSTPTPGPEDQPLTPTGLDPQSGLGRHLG
T15 sequence (Q8NHL6 24-650): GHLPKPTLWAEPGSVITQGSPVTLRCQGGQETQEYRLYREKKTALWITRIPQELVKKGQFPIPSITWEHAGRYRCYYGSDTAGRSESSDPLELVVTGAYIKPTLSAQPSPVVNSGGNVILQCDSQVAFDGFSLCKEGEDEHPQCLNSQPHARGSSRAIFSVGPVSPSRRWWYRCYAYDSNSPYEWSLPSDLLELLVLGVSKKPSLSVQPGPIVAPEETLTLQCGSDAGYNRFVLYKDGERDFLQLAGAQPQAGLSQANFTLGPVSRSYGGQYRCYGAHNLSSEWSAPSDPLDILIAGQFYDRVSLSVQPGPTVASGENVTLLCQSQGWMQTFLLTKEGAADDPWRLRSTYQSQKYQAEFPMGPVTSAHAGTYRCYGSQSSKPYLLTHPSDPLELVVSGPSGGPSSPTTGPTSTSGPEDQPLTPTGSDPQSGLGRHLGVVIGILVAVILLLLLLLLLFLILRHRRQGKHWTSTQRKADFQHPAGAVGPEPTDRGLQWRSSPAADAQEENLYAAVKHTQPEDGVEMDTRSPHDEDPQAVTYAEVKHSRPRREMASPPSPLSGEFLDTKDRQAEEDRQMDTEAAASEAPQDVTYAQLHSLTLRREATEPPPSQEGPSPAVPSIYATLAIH

B1: B1.2.1 monoclonal antibody (antibody, V domains shown)
VH: EVQLVESGGGLVQPKGSLKLSCAASGFTFNTHAMHWVRQAPGKGLEWVARIRSKSSNYATFYADSVKDRFTISRDDSQSMLYLQMNNLKTEDTAIYFCVMVYYGNSPYYSMDYWGQGTSVTVSS
VL: NIVMTQSPKSMSMSVGERVTLSCKASENVGTYVSWYQQKPEQSPKLLIYGASNRYTGVPDRFTGSGSATDFTLIINNIQAEDLADYHCGQSYSSPLTFGAGTKLELK
notes: Mouse monoclonal antibody purified from hybridoma supernatant (immunisation with mLILRB1.2-Fc); also called B1.2.1 mAb
For the molecule B1, the binding result in [1], in experiment [2], in experiment [3], in experiment [4], in [5] and in experiment [6] was “no binding (tested: 10 µg/ml)” each time. Further, the equilibrium dissociation constant (Kd) (as a rule, a measure of binding affinity in units of concentration) in [7] turned out to be 0.014 nM; in experiment [8], 2.9 nM; in experiment [9], 0.14 nM; in experiment [10] it was 1.3 nM; in experiment [11] it was 0.53 nM; in experiment [12], 0.73 nM. Moreover, the Kd in experiment [13] is 0.0039 nM.

B2: B1.2.2 monoclonal antibody (antibody, V domains shown)
VH: EVQLVESGGGLVKPGGSLKLSCAASGFTFSDYGMHWVRQAPEKGLEWVAYISSGSSTSYYADTVKGRFTISRDDAKNTLFLQMTSLRSEDTAMYYCARPGSNWDVYYAMDYWGQGTSVTVSS
VL: DIVLTQSPASLAVSLGQRATISCRASQSVSTSSYSYMHWYQQKPGQPPKLLIKNASNLESGVPARFSGSGSGTDFTLNIHPVEEEDTATYYCQHSWEIPFTFGGGTKLEIK
notes: Mouse monoclonal antibody purified from hybridoma supernatant (immunisation with mLILRB1.2-Fc); also called B1.2.2 mAb; clone 20G10
For B2, the binding result in experiment [1], in [2], in [3], in experiment [4], in [5] and in experiment [6] was “no binding (tested: 10 µg/ml)” throughout. In addition, the Kd in [7] was found to be 0.12 nM; in experiment [8] it was 0.071 nM; in experiment [14], 0.48 nM; in experiment [10] it was 3.2 nM; in experiment [11], 0.87 nM; in [12], 0.37 nM. Besides, the Kd in experiment [13] is 3.6 nM.

B3: BF14 humanized antagonist antibody of Family AB2 (antibody, V domains shown)
VH: QVQLVESGGGVVQPGRSLRLSCAASGFTFSDYGMHWVRQAPGKGLEWVAYISSGSSTSYYADTVKGRFTISRDDSKNTLYLQMNSLRAEDTAVYYCARPGSNWDVYYAMDYWGQGTLVTVSS
VL: DIQLTQSPSSLSASVGDRVTITCRASQSVSTSSYSYMHWYQQKPGKAPKLLIKNASNLESGVPSRFSGSGSGTDFTLTISSLQPEDFATYYCQHSWEIPFTFGPGTKVDIK
B3: the binding result in experiment [15] is given as “binds”.
